Laboratory results published in publication PMC2757994 (The Journal of Biological Chemistry, 2009).

Molecular target: the molecule itself
Test: SEC-MALS

B1: fibulin 5 fragment, residues 120–333 (cbEGFs 2–6) (domain or fragment, UniProt Q9UBX5 120-333, looked up)
chain: DESNQCVDVDECATDSHQCNPTQICINTEGGYTCSCTDGYWLLEGQCLDIDECRYGYCQQLCANVPGSYSCTCNPGFTLNEDGRSCQDVNECATENPCVQTCVNTYGSFICRCDPGYELEEDGVHCSDMDECSFSEFLCQHECVNQPGTYFCSCPPGYILLDDNRSCQDINECEHRNHTCNLQQTCYNLQGGFKCIDPIRCEEPYLRISDNRCM
modifications: N-glycosylated by the EBNA 293 cells (potential N-linked sites at residues 283 and 296)
stoichiometry N: 2
